# ± gives the uncertainty stated by the source.
# Experiment: protein stability index of a GFP-peptide fusion (yeast GPS) (PSI 1-4); higher = more stable; sorted into four equal gates, so the index is relative within each strain
# Settings: doa10∆
# Procedure, shortened: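 Plasmids isolated from each sorting gate were PCR-amplified and Illumina-sequenced, and barcodes assigned the reads to strains. The gates, four of equal size, were set by GFP/Cherry fluorescence ratio on mid-log cultures in leucine-free medium. These cultures were yeast carrying a pooled library of tiled 17-residue yeast protein peptides fused downstream of GFP on a plasmid that also expresses Cherry. The protein stability index is the sum of every gate's read frequency times its gate number.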
row,Sequence,protein stability index
1,VMFATNRPNTLDPALLR [RPT1],2.81 ± 0.075
2,VMIAEIPTLAIDSVEVE [RPB3],2.3 ± 0.18
3,VMLRLLLVVIFKKTLRS [SRB4],1.59 ± 0.068
4,VNCFHEDTELYQELIKN [YJL039C/NUP192],2.13 ± 0.12
5,VNEDPIFHPMIHYSWSF [YML103C/NUP188],2.56 ± 0.056
6,VNEIMYKCTAAMEKYLL [MTW1],2.19 ± 0.046
7,VNIHHLLNEYRPHQSRE [MED7],2.81 ± 0.084
8,VNIPSFMVRLDSEKHID [RPS9A],2.62 ± 0.081
9,VNISAVDNTTEQSNSRK [YCG1],3.26 ± 0.23
10,VNKYGLRADKLYEKLKQ [ISW2],1.52 ± 0.13
11,VNNPQEETSHLLTVTPG [RPN10],2.62 ± 0.13
12,VNVEKFNVEYFAKEKLT [RPL6A],1.84 ± 0.039
13,VPATAAPGTEAGIVPVS [SWI1],3.1 ± 0.069
14,VPHYNRLDSYKVIEQPI [RPL25],1.8 ± 0.095
15,VPMKEENLEESFLSKHA [SSN2],3.43 ± 0.094
16,VPNSIGNIFSNIGTPSF [SNF5],2.8 ± 0.11
17,VPPMKLAYSKIVNGQTF [YMR129W/POM152],1.37 ± 0.068
18,VPPPPVRPSISFNESQR [RPO21],2.47 ± 0.037
19,VPQTEEARAEAINLMGV [RPO31],3.15 ± 0.11
20,VPRAALEERFDPKSPTK [YMR129W/POM152],3.15 ± 0.062
21,VPSTTNVNMTVNTMGTG [MED6],3.23 ± 0.3
22,VPVANQFINLAGYKKLG [QCR7],1.97 ± 0.14
23,VQESGNIDYQKGLLIWR [GRR1],3.35 ± 0.091
24,VQGLLQNAAANAEAKGL [RPL17A],2.3 ± 0.094
25,VQVRSVMDPITSKRKAE [DIS3],2 ± 0.13
26,VRELFEMARTKKACIIF [RPT1],1.12 ± 0.093

row,Sequence,protein stability index
1,VRELGILCIFEGEKCHP [SEC65],2.01 ± 0.052
2,VRILRLITTNSVEEVIL [SNF2],2.3 ± 0.093
3,VRLRSNVIKTGIRIISL [RPN3],2.27 ± 0.21
4,VRTHMRNMIIVPEMIGS [RPS15],1.25 ± 0.059
5,VRTNTLTKAAIVQIDAT [RPS8A],2.233 ± 0.022
6,VSEITKLKFFPSGEALI [RPN14],2.55 ± 0.089
7,VSFYFEDGTIESYNQND [SIN4],2.2 ± 0.083
8,VSKEGLYQLVDIRDSSC [YMR129W/POM152],2.83 ± 0.099
9,VSKKWAAAAVCEKWAAS [RPL14A],2.42 ± 0.083
10,VSLGTSIMAVTFKDGVI [PRE3],3.55 ± 0.12
11,VSMYQNSSTSSTSNTPS [YDL088C/ASM4],2.59 ± 0.064
12,VSNNEANTPSIPTNPVD [SWI3],3.14 ± 0.074
13,VSPAFRVQVGDIVTVGQ [RPS11A],2.49 ± 0.091
14,VSQQPLSRGYTCPGLSL [ECM29],3.02 ± 0.056
15,VSSSLYERRFGPYFVGP [PUP3],2.79 ± 0.13
16,VSTAKFSGKYLKYLTKK [RPL22A],3.17 ± 0.12
17,VTDKYTAKKTNRSAYDS [YDL088C/ASM4],2.81 ± 0.089
18,VTDNKTPEMNVTNNVEE [TAF14],3.28 ± 0.17
19,VTDSSLLKLLTRLVQLR [GRR1],2.4 ± 0.054
20,VTEMSNNANVLGGEIND [BRR2],3.18 ± 0.11
21,VTFIFGELKRGNESVKP [MED11],3.43 ± 0.17
22,VTKDLKLRREDEIIVYA [REC8],2.8 ± 0.069
23,VTKGGTVENPLRNWEEL [PRP28],2.55 ± 0.073
24,VTMGAKDKLREFIPHST [RPN6],3.46 ± 0.11
25,VTRIINSSEIQSAIRPA [RPL4A],2.32 ± 0.083
26,VTSKVRNAEFKVSKNST [YMR153W/NUP53],3.08 ± 0.15

row,Sequence,protein stability index
1,VTVDADIDDILKKGEQK [ISW2],2.85 ± 0.12
2,VTVEQLRSIYHQFHDIL [NSL1],2.41 ± 0.11
3,VTWRTFTGDFLRRVEER [FAS1],2.79 ± 0.12
4,VVERHLEDGDVVLFNRQ [RPO31],3.41 ± 0.079
5,VVFTRLVQRCWQWGNDR [CSN12],1.42 ± 0.092
6,VVGQLFQIDNDNIRYAT [SMC2],2.67 ± 0.067
7,VVMAMYNPKMIDDRDYV [RET1],3.36 ± 0.27
8,VVSTDLESIQKTKEAVA [RPL4A],2.95 ± 0.072
9,VVTMSVKSVNDPSQNRL [RPC37],2.27 ± 0.19
10,VYAQQSTVQTPITASMA [PGD1],1.59 ± 0.056
11,VYDIMALEDEERDEILT [BRR2],3.15 ± 0.16
12,VYSFDPVGSYEREQCRA [PRE7],3.62 ± 0.23
13,VYVTGGRNLGRIGTIVH [RPS4A],3.02 ± 0.21
14,WAEHLSDEVKRRFYKNW [RPL3],3.31 ± 0.2
15,WCAGAGTAADTEAVTQL [PUP1],3.16 ± 0.24
16,WCQEAFPSSETTSLNPI [BRR2],3.23 ± 0.11
17,WEISNPDFLSKYSAITS [NUT1],1.54 ± 0.045
18,WFLDHNYIENMNEMCKK [RPN8],3.54 ± 0.18
19,WGEQKKAMSSRAGVSQV [RPB2],3.27 ± 0.12
20,WGIPLIKELRSKGYPIQ [FAS1],2.38 ± 0.16
21,WGMEPLEDYVPHQSPDA [RPB2],2.85 ± 0.11
22,WGYQMVWAPTQKCFKLT [POP1],2.59 ± 0.069
23,WHIEETGEWFSSYEEFL [ITC1],2.31 ± 0.072
24,WKFKSLIEILRLRALQL [RRI2],1.45 ± 0.093
25,WKIPQNDIPQTESPLKT [SSN2],2.71 ± 0.082
26,WLAAATATGIKVFSLDP [ASC1],2.58 ± 0.049

row,Sequence,protein stability index
1,WLLHNGFSTGIGDTIAD [RPO21],3.11 ± 0.16
2,WLYVYETPNQDATYDSA [RPN6],2.62 ± 0.075
3,WNLNATKPNVLNDPSLK [SIN4],3 ± 0.088
4,WNSLMYALQSVKLPRAF [RRP43],1.31 ± 0.066
5,WNWAKQSLLSLYFEIIH [FAS2],1.7 ± 0.06
6,WRSKRIEQLFPVRPVRV [RPC53],3.25 ± 0.14
7,WSFEEVEVKDASLVDYV [RPS5],1.32 ± 0.089
8,WSSLLNEGLVEYIDAEE [RPB2],2.84 ± 0.21
9,WVNMLLISSSGPIKTPV [FAS2],1.87 ± 0.059
10,WVTEVLGNDIPHDLIIG [BRR2],2.17 ± 0.042
11,YASKAVPHYNRLDSYKV [RPL25],2.11 ± 0.14
12,YDDEQNTSAQHVESDKI [IRR1],3.25 ± 0.094
13,YDEVKKHWGGGILGNKA [RPL8A],3.16 ± 0.11
14,YDLVDNKGAKAEDVALN [NAS6],2.8 ± 0.14
15,YDNIDIQRGRILPTDGS [RPB7],3.05 ± 0.28
16,YDSRGVGEMKLLKKKDD [YLR335W/NUP2],2.51 ± 0.098
17,YDSRPLEEDSKKVNGTS [PRP8],2.99 ± 0.23
18,YEAGASHGNPVVDFLKR [FAS1],3.17 ± 0.09
19,YEDEELSRAEYDSDSDS [LIN1],3.19 ± 0.1
20,YEKNFEATLESKLKEEE [ESC2],3.09 ± 0.12
21,YENIPIYATFLNESDCL [YDL116W/NUP84],2.16 ± 0.098
22,YFLVLSPYGNLQNDLIH [RPN5],1.92 ± 0.091
23,YFSVTTARRNVSGDAAA [SWI3],1.9 ± 0.059

# From the supplement of paper PMC9732359
